Data: patent publication US20220243288, “BIOSENSORS FOR POLYKETIDE EXTENDER UNITS AND USES THEREOF” (NORTH CAROLINA STATE UNIVERSITY, published 2022)

Target: T1, FapR (Bacillus subtilis, UniProt O34835 SEQ:1-188)
T1 sequence: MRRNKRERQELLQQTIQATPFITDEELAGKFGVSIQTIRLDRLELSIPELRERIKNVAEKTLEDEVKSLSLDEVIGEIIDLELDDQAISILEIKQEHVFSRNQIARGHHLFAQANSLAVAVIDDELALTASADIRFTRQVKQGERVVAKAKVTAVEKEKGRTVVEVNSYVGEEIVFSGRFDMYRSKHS
Assay: EMSA; near-complete shift; 2 pmol fapO, 6 pmol FapR (text also says two-fold excess); 10 mM Tris pH 7.5, 100 mM KCl, 30 C; released by 200 uM malonyl-CoA or methylmalonyl-CoA
Settings: tags: C-terminal His6 (pET28a); chain copies: 2
From the text: The saturated alkyl derivatives emCoA and bmCoA were the poorest effectors, based on the fluorescence data. This robust activity of pgmCoA is due in part to the increased rigidity of the alkyne side-chain or additional interactions of the alkynyl […] with the FapR ligand-binding site, with the […] side-chain of the nearby Phe99 (FIG. 5A). Gratifyingly, de-repression was not observed in the presence of propionyl-CoA and was indistinguishable from the (−) thioester control. To provide further evidence that FapR is de-repressed by derivatives of mCoA, FapR was tested in vitro for DNA-binding and release by electrophoretic mobility shift assay (EMSA) in the presence of mCoA or mmCoA. Using purified wild-type FapR protein, EMSA was run with a 40 bp DNA fragment containing the fapO binding site (FIG. 7). […] Incubation with the FapR-fapO complex with mmCoA achieved a similar level of de-repression as that observed with mCoA (FIG. 7).
Electrophoretic mobility shift assay. The fapO oligonucleotides 5′-[…]-3′ (SEQ ID NO:30) and 5′-[…]-3′ (SEQ ID NO:31) were annealed per standard procedure. […] Reactions were then analyzed by electrophoresis on a 6% PAGE gel at 220 V. The gel was stained with SYBR Green I and imaged on a Typhoon FLA 7000.

B1: 40 bp fapO fragment (dsDNA)
DNA 1: CCTAGGACTATTAGTACCTAGTCTTAATTGTCCGGCATCC
DNA 2: GGATGCCGGACAATTAAGACTAGGTACTAATAGTCCTAGG
B1: binds.
